# Data published in article PMC10397247.
# T1: 4H429-AA
# T1 chain: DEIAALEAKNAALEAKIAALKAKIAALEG
# T2: 4H3655-AA
# T2 chain: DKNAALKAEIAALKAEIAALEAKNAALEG
# T3: 4H3627-AA
# T3 chain: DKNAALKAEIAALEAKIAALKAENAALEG
# T4: 4H906-AA
# T4 chain: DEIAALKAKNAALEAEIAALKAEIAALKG
# T5: 4H717-AA
# T5 chain: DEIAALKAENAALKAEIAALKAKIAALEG
# T6: 4H48-AA
# T6 chain: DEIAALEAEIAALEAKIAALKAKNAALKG
# T7: 4H342-AA
# T7 chain: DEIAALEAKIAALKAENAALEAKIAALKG
# T8: 4H317-AA
# T8 chain: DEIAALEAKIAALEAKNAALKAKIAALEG
# T9: 4H678-AA
# T9 chain: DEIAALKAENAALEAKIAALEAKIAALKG
# T10: 4H3921-AA
# T10 chain: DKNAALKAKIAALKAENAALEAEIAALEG
# T11: 4H454-AA
# T11 chain: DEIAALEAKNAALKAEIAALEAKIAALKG
# T12: 4H3844-AA
# T12 chain: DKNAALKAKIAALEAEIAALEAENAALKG
# T13: 4H605-AA
# T13 chain: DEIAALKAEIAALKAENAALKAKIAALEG
# T14: 4H3112-AA
# T14 chain: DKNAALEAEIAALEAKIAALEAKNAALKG
# T15: 4H335-AA
# T15 chain: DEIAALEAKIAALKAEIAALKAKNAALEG
# T16: 4H3606-AA
# T16 chain: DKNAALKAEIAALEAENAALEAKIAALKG
# T17: 4H780-AA
# T17 chain: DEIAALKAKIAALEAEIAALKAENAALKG
# T18: 4H881-AA
# T18 chain: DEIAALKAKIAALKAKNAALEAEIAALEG
# T19: 4H993-AA
# T19 chain: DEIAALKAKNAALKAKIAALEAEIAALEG
# T20: 4H3427-AA
# T20 chain: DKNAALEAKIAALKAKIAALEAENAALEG
# T21: 4H2949-AA
# T21 chain: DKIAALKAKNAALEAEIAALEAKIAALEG
# T22: 4H794-AA
# T22 chain: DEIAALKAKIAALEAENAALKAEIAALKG
# T23: 4H566-AA
# T23 chain: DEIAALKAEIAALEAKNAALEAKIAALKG
# T24: 4H3343-AA
# T24 chain: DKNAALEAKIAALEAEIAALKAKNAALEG
# T25: 4H3410-AA
# T25 chain: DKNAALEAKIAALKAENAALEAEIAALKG
# T26: 4H745-AA
# T26 chain: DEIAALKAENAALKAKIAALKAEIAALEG
# T27: 4H891-AA
# T27 chain: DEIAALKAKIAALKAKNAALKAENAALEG
# T28: 4H629-AA
# T28 chain: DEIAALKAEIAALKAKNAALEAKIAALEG
# T29: 4H3165-AA
# T29 chain: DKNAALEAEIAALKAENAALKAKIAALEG
# T30: 4H3753-AA
# T30 chain: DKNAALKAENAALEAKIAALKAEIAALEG
# T31: 4H930-AA
# T31 chain: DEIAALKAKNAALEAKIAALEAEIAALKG
# T32: 4H3865-AA
# T32 chain: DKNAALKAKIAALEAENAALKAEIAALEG
# T33: 4H797-AA
# T33 chain: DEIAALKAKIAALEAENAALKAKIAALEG
# T34: 4H570-AA
# T34 chain: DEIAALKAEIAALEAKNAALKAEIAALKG
# T35: 4H850-AA
# T35 chain: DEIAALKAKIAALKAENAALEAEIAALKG
# T36: 4H3590-AA
# T36 chain: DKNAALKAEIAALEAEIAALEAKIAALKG
# T37: 4H3381-AA
# T37 chain: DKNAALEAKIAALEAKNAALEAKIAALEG
# T38: 4H3130-AA
# T38 chain: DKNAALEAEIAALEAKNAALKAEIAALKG
# T39: 4H909-AA
# T39 chain: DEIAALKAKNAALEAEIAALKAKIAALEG
# T40: 4H3697-AA
# T40 chain: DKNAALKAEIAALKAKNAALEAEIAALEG
# T41: 4H458-AA
# T41 chain: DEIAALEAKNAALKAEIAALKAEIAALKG
# T42: 4H536-AA
# T42 chain: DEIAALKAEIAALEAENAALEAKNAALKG
# T43: 4H3395-AA
# T43 chain: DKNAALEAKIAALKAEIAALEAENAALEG
# T44: 4H485-AA
# T44 chain: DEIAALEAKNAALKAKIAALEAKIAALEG
# T45: 4H94-AA
# T45 chain: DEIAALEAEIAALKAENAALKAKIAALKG
# T46: 4H710-AA
# T46 chain: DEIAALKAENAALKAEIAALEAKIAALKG
# T47: 4H850-bN
# T47 chain: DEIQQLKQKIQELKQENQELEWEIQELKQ
# T48: 4H906-bN
# T48 chain: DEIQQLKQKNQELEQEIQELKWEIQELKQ
# T49: 4H3974-AA
# T49 chain: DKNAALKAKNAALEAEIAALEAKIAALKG
# T50: 4H446-AA
# T50 chain: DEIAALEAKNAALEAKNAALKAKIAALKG
# T51: 4H63-AA
# T51 chain: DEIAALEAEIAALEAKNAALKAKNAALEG
# T52: 4H432-AA
# T52 chain: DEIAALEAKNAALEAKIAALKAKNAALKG
# How the values were obtained:
# [1] = target: T1, 4H429-AA; test: two-hybrid library CCmax; conditions: mean of both orientations;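 also: natural log of median RNA to DNA barcode read ratio; higher means stronger binding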
# [2] = target: T2, 4H3655-AA; test: two-hybrid library CCmax; conditions: mean of both orientations;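 also: natural log of median RNA to DNA barcode read ratio; higher means stronger binding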
# [3] = target: T3, 4H3627-AA; test: two-hybrid library CCmax; conditions: mean of both orientations;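 also: natural log of median RNA to DNA barcode read ratio; higher means stronger binding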
# [4] = target: T4, 4H906-AA; test: two-hybrid library CCmax; conditions: mean of both orientations;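 also: natural log of median RNA to DNA barcode read ratio; higher means stronger binding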
# [5] = target: T5, 4H717-AA; test: two-hybrid library CCmax; conditions: mean of both orientations;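 also: natural log of median RNA to DNA barcode read ratio; higher means stronger binding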
# [6] = target: T6, 4H48-AA; test: two-hybrid library CCmax; conditions: mean of both orientations;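 also: natural log of median RNA to DNA barcode read ratio; higher means stronger binding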
# [7] = target: T7, 4H342-AA; test: two-hybrid library CCmax; conditions: mean of both orientations
# [8] = target: T8, 4H317-AA; test: two-hybrid library CCmax; conditions: mean of both orientations
# [9] = target: T9, 4H678-AA; test: two-hybrid library CCmax; conditions: mean of both orientations
# [10] = target: T10, 4H3921-AA; test: two-hybrid library CCmax; conditions: mean of both orientations
# [11] = target: T11, 4H454-AA; test: two-hybrid library CCmax; conditions: mean of both orientations
# [12] = target: T12, 4H3844-AA; test: two-hybrid library CCmax; conditions: mean of both orientations
# [13] = target: T13, 4H605-AA; test: two-hybrid library CCmax; conditions: mean of both orientations
# [14] = target: T14, 4H3112-AA; test: two-hybrid library CCmax; conditions: mean of both orientations
# [15] = target: T15, 4H335-AA; test: two-hybrid library CCmax; conditions: mean of both orientations
# [16] = target: T16, 4H3606-AA; test: two-hybrid library CCmax; conditions: mean of both orientations
# [17] = target: T17, 4H780-AA; test: two-hybrid library CCmax; conditions: mean of both orientations
# [18] = target: T18, 4H881-AA; test: two-hybrid library CCmax; conditions: mean of both orientations
# [19] = target: T19, 4H993-AA; test: two-hybrid library CCmax; conditions: mean of both orientations
# [20] = target: T20, 4H3427-AA; test: two-hybrid library CCmax; conditions: mean of both orientations
# [21] = target: T21, 4H2949-AA; test: two-hybrid library CCmax
# [22] = target: T22, 4H794-AA; test: two-hybrid library CCmax
# [23] = target: T23, 4H566-AA; test: two-hybrid library CCmax; conditions: mean of both orientations
# [24] = target: T24, 4H3343-AA; test: two-hybrid library CCmax; conditions: mean of both orientations
# [25] = target: T25, 4H3410-AA; test: two-hybrid library CCmax; conditions: mean of both orientations
# [26] = target: T26, 4H745-AA; test: two-hybrid library CCmax; conditions: mean of both orientations
# [27] = target: T27, 4H891-AA; test: two-hybrid library CCmax; conditions: mean of both orientations
# [28] = target: T28, 4H629-AA; test: two-hybrid library CCmax; conditions: mean of both orientations
# [29] = target: T29, 4H3165-AA; test: two-hybrid library CCmax; conditions: mean of both orientations
# [30] = target: T30, 4H3753-AA; test: two-hybrid library CCmax; conditions: mean of both orientations
# [31] = target: T31, 4H930-AA; test: two-hybrid library CCmax; conditions: mean of both orientations
# [32] = target: T32, 4H3865-AA; test: two-hybrid library CCmax; conditions: mean of both orientations
# [33] = target: T33, 4H797-AA; test: two-hybrid library CCmax; conditions: mean of both orientations
# [34] = target: T34, 4H570-AA; test: two-hybrid library CCmax; conditions: mean of both orientations
# [35] = target: T35, 4H850-AA; test: two-hybrid library CCmax; conditions: mean of both orientations
# [36] = target: T36, 4H3590-AA; test: two-hybrid library CCmax; conditions: mean of both orientations
# [37] = target: T37, 4H3381-AA; test: two-hybrid library CCmax; conditions: mean of both orientations
# [38] = target: T38, 4H3130-AA; test: two-hybrid library CCmax
# [39] = target: T39, 4H909-AA; test: two-hybrid library CCmax; conditions: mean of both orientations
# [40] = target: T40, 4H3697-AA; test: two-hybrid library CCmax; conditions: mean of both orientations
# [41] = target: T41, 4H458-AA; test: two-hybrid library CCmax; conditions: mean of both orientations
# [42] = target: T42, 4H536-AA; test: two-hybrid library CCmax; conditions: mean of both orientations
# [43] = target: T43, 4H3395-AA; test: two-hybrid library CCmax; conditions: mean of both orientations
# [44] = target: T44, 4H485-AA; test: two-hybrid library CCmax; conditions: mean of both orientations
# [45] = target: T45, 4H94-AA; test: two-hybrid library CCmax; conditions: mean of both orientations
# [46] = target: T46, 4H710-AA; test: two-hybrid library CCmax; conditions: mean of both orientations
# [47] = target: T47, 4H850-bN; test: two-hybrid library CCNG1
# [48] = target: T48, 4H906-bN; test: two-hybrid library CCNG1
# [49] = target: T49, 4H3974-AA; test: two-hybrid library CCmax
# [50] = target: T50, 4H446-AA; test: two-hybrid library CCmax; conditions: mean of both orientations
# [51] = target: T51, 4H63-AA; test: two-hybrid library CCmax; conditions: mean of both orientations
# [52] = target: T52, 4H432-AA; test: two-hybrid library CCmax; conditions: mean of both orientations
binder,measurement,setting,value
DKIAALKAKNAALEAEIAALEAKIAALEG [4H2949-AA],interaction score,[1],1.91
same,interaction score,[2],-1.3
same,interaction score,[3],-1.38
same,interaction score,[4],-1.01
same,interaction score,[5],-0.385
same,interaction score,[6],-0.564
same,interaction score,[7],0.399
same,interaction score,[8],1.47
same,interaction score,[9],1.69
same,interaction score,[10],0.152
same,interaction score,[11],1.98
same,interaction score,[12],-1.79
same,interaction score,[13],-0.239
same,interaction score,[14],-0.654
same,interaction score,[15],-0.276
same,interaction score,[16],-0.156
same,interaction score,[17],-1.49
same,interaction score,[18],1.71
same,interaction score,[19],1.65
same,interaction score,[20],-0.95
same,interaction score,[21],1.3
same,interaction score,[22],-1
same,interaction score,[23],-0.649
same,interaction score,[24],-1.48
DKNAALEAEIAALEAKNAALKAEIAALKG [4H3130-AA],interaction score,[25],2.07
same,interaction score,[26],-1.54
same,interaction score,[27],-1.99
same,interaction score,[28],-1.31
same,interaction score,[29],-1.3
same,interaction score,[30],-0.789
same,interaction score,[31],-1.73
same,interaction score,[32],1.11
same,interaction score,[33],-1.21
same,interaction score,[34],-0.712
same,interaction score,[35],2.04
same,interaction score,[36],0.624
same,interaction score,[37],-1.07
same,interaction score,[38],0.118
same,interaction score,[39],-1.06
same,interaction score,[40],-0.0288
same,interaction score,[41],-3.23
same,interaction score,[42],-0.902
same,interaction score,[43],-1.29
same,interaction score,[44],-1.58
same,interaction score,[45],-0.202
same,interaction score,[46],-1.31
DEIQQLKQKIQELKQENQELEWEIQELKQ [4H850-bN],interaction score,[47],0.186
same,interaction score,[48],-0.386
DKNAALKAKNAALEAEIAALEAKIAALKG [4H3974-AA],interaction score,[49],-0.00837
same,interaction score,[50],-0.724
same,interaction score,[51],-0.932
same,interaction score,[52],-0.198
